Values of other authors as cited in patent US20180161372A1, “COMPOSITION FOR TREATING BRAIN LESIONS” (ORGANES TISSUS REGENERATION REPARATION REMPLACEMENT - OTR3, priority 2015, published 2018).

Tested on: patients
Details: strictly selected stroke patients

Substance: rt-PA: t-PA (tissue plasminogen activator), thrombolysis approved for ischemic stroke
- patients developing a cerebral hemorrhage following administration: 13%
